Measured values taken from the DeepSol protein solubility set.

Experiment: soluble on expression in E. coli; label from the status in PepcDB or PDB records

Row | Sequence | soluble on expression in E. coli
1 | MFFSVVIPTYNRLPILEKCLRALEQQTFDETLISGYEIVVVDDGSTDGTLAWLDGHCQGFPHVRTWEQDHQGPAAARNLGVKEAAGDTIIFIDSDLVVTDIFLQAHAEGLQRGQKQYNSDRVFTYGAVVNTCNFDSPQSEPYKLTDYSAAFFATGNVAIAKQWLLEAGLFDTGFQLYGWEDLELGVRLKNLGLKLVKCPRAVGYHWHPPFSLQQIPKLIDQEIQRGRMGVLFYQKHPTWEVRLMIQMTRLHWFLWGLLSLGGRLNEKTMAPLLQWLIDHDRPQLALEIARIFLNWYNVQGVYAAFAESQSSHLEHHHHHH | not soluble
2 | MHIKSAIIVVSDRISTGTRENKALPLLQRLMSDELQDYSYELISEVVVPEGYDTVVEAIATALKQGARFIITAGGTGIRAKNQTPEATASFIHTRCEGLEQQILIHGSTHTHLAGLSRGIVGVTGRDDHAALIVNAPSSSGGITDTWAVISPVIPNIFEGLDAS | soluble
3 | MGGSHHHHHHGMASALFRMLNSSFEDDPFFSESILAHRENMRQMIRSFSEPFGRDLLSISDGRGRAHNRRGHNDGEDSLTHTDVSSFQTMDQMVSNMRNYMQKLERNFGQLSVDPNGHSFCSSSVMTYSKIGDEPPKVFQASTQTRRAPGGIKETRKAMRDSDSGLEKMAIGHHIHDRAHVIKKSKNKKTGDEEVNQEFINMNESDAHAFDEEWQSEVLKYKPGRHNLGNTRMRSVGHENPGSRELKRREKPQQSPAIEHGRRSNVLGDKLHIKGSSVKSNKK | not soluble
4 | MVKLKVEDLEMDKIAPLAPEVSLKMAWNIMRDKNLKSIPVADGNNHLLGMLSTSNITATYMDIWDSNILAKSATSLDNILDTLSAEAQNINEERKVFPGKVVVAAMQAESLKEFISEGDIAIAGDRAEIQAELIELKVSLLIVTGGHTPSKEIIELAKKNNITVITTPHDSFTASRLIVQSLPVDYVMTKDNLVAVSTDDLVEDVKVTMSETRYSNYPVIDENNKVVGSIARFHLISTHKKKLEHHHHHHHH | soluble
5 | MGHHHHHHSHMLEPQENGVIDLPDYEHVEDETFPPFPPPASPERQDGEGTEPDEESGNGAPVPVPPKRTVKRNIPKLDAQRLISERGLPALRHVFDKAKFKGKGHEAEDLKMLIRHMEHWAHRLFPKLQFEDFIDRVEYLGSKKEVQTCLKRIRLDLPILHEDFVSNNDEVAENNEHDVTSTELDPFLTNLSESEMFASELSRSLTEEQQRRIERNKQLALERRQAKLLSNSQTLGNDMLMNTPRAHTVEEVNTDEDQKEESNGLNEDILDNPCNDAIANTLNEEETLLDQSFKNVQQQLDATSRNITEAR | soluble
6 | MVKVTIIIPTYNPREHLIDTLLSVRTQNFTNIEVLIVDDGSTVDVSTLIKPYITADNIRCIRRKNGGTAAARNTGITNSTGEYIAFLDHDDIWLPDKVALQVEALDRNLSCGLTYCNFQILDEQTGSLINPHRQGEGGCMFEKFLYRNYITTASQIMVRRSCFDQLGLFDESLPIVDDYDFYLRLSRCYDIHYDPRVLTHWRSHQFNTSKNYEKTQLGRIKVKETALNRWALSDNQKKILFKGLRRDYYELAYYYLNSEKYSDARNYFRKAVPYRPVKSIVYYLSTCVPGLSYLNMKALKNDFLKLEHHHHHH | not soluble
7 | MKYYHHHHHHDYDIPTTENLYFQGAMAFDGEDEVTGPDADRARAAAVQAVPGGTAGEVETETGEGAAAYGVLVTRPDGTRVEVHLDRDFRVLDTEPADGDGG | soluble
8 | MATYNGQGFIHDQLDSIRNQTLRPDYVLMRDDGSTDDTVKVVEDYIKEHRLDGWSITSNDKNLGWRLNFRQLLIDVLAYEVDYVFFSDQDDTWYHHKNKMQVDIMEERQDINLLSADIDIKKLSEEATIPNNFKFNGEETISKYPLDFSYHNYRQGWTFCLRKSFVDQVMTFYSDNLILSHDNLFAGVSGVIGSGYNLNRSVGEHKRHAENASGNILNMSSSYERHLQELYFVLSYYIILVPFLEKSSSSQLREAKAYLDFNQQRYKNAQNKDFVAILKQMMTKKRFYDSFSNRIRDLVFLLKDIKRS | not soluble
9 | MNHKALFSGKLVFIGFGSITRATLGLLGNVQRFDVSRIVVIAPGIKGSEPFVKSGVTFIDQALTSDTMESVLGSIVGQGDFIVNLSVNVCSADVIRFAYAHDALYLDTCIEPWGNTYNSPSLTASQRSNYALRDQLRTLGAELGPGPTAVVAHGANPGLISHFLKCALSALAEQLSVAVPRHQGGIDWGNLSMKLGVKVIHIAERDTQRSTRIKSDGEFVNTWSVDGFVSEAGQPAELGWGSHEKNWPPFARHHQFGSDNAIYLDRPGACVSVKTWTPNGGPCNAMLITHNEAISIPELLTVRNEGALSYRPTVHYAYHPCDDALLSINEYTGRGWHAQDRQRIMLDEITPGGIDALGVLIMGHKLNAYWYGSILNIDEARRLAPFNNATSLQVAAGVYSGIIWAIENPDRGIVEPEQMDHQRVMEIALPFLGKFGGVLTDWTPLKTGNALFRKPDADACPWQFEHFTAALEHHHHHH | not soluble
10 | MDEEYDAIVLGTGLKECIISGMLSVSGKKVLHIDRNNYYGGESASLTPLEQLYEKFHGPQAKPQQEMGRGRDWNVDLIPKFLMANGPLVKLLIHTGVTRYLEFKSIEASFVVKGGKIYKVPADEMEALATSLMGMFEKRRFKKFLVWVQQFDENKEDTWQGLDPHNSTMQQVYEKFGLDENTADFTGHALALYRDDEHKNQPYAPAVEKIRLYSDSLARYGKSPYLYPLYGLGELPQGFARLSAIYGGTYMLDKPVDEIVMENGKAIGVKCGDEIVRGKQIYCDPSYAKDRVKKTGQVVRAICLLNHPIPNTNDAQSCQIIIPQKQVGRHYDIYISCCSNTNMVTPKGWYLAMVSTTVETANPEAEVLPGLQLLGAIAEKFIQISDVYEPSDLGSESQIFISQSYDATTHFETTCKDVLNMFERGTTKEFDFTNITHLSLNDQE | not soluble
11 | TLREGWVVHYSNKDTLRKRHYWRLDCKCITLFQNNTTNRYYKEIPLSEILTVESAQNFSLVPPGTNPHCFEIVTANATYFVGEMPGGTPGGPSGQGAEAARGWETAIRQALM | soluble
12 | MPYKEKDIEKKYFSIGEVSAMFKVAPSLIRFWETEFDIFKPQKNRRGNRQFTKEDIENFRLIYNLVKERGYTLQGAKEMLKVDRHKSKDKMELLDSLQKVRDFLVDLKKQME | not soluble
13 | MERECEESVVVAVVTEPRFTQRYRDYLEEQKLLDRLHRVAKLRDGAVALPVLAESLSEQHLQELRDRVAPGSTCVLTRLPDPLPSKKARVRSPAQILCLEVRRWVEDRGVTWSAELEADLPRSWQRHGDLMLLSEDCFQATLWKGLEPELWETVASALGVQRLAKRGRVLPDGTRTPSVTLLLGDHGWVEHMDNGIRYKFDVTQCMFSFGNITEKLRVASLSCAGEVLVDLYAGIGYFTLPFLVHAGAAFVHACEWNPHAVVALRNNLEINGVADRCQIHFGDNRKLKLSDIADRVNLGLIPSSKEGWPVACQVLRKDVGGILHIHQNVESFSGKTPQPPGSNNVEKEHWPRPQKITTDTQGNGTTENFRGEISSANKPEWWRWAESAETQIASLLHQVHGKPWRTRILHVHPVKSYAPHVDHIVLDLECRPLTSSWPEGVDLLTQ | soluble
14 | MGHHHHHHSHMDWNKTYAAIYRARKDYLKPIFEIDPIALKDLVGMESQKKALYENTLNFIQDKGANHALLWGSKGTGKSSLIKAIFNEFKEQGLRLVELNKEDLFALADIIDEIRLENFKFILFCDDFSFEKGDDSYKFLKPLLEGSIEKAPNNVIIYASSNRRHLLSESITDNLDTQITHTELHLSDAAEERLSLSDRFG | soluble
15 | MFNRIMVPVDGSKGAVKALEKGVGLQQLTGAELYILCVFKHHSLLEASLSMARPEQLDIPDDALKDYATEIAVQAKTRATELGVPADKVRAFVKGGRPSRTIVRFARKRECDLVVIGAQGTNGDKSLLLGSVAQRVAGSAHCPVLVV | soluble
16 | MGHHHHHHSHALPAGEWGTVQLRGSWRVGQTAGGSRNFASYPTNPCFPFSVPEGPGPRCVRITLHQHCRPSDTEFHPIGFHIFQVPEGGRSQDAPPLLLQEPLLSCVPHRYAQEVSRLCLLPAGTYKVVPSTYLPDTEGAFTVTIATRIDRPSIHSQEMLGQFLQEVSVMAVMKT | soluble
17 | MAHTRSLQMLKAHSTRSALRQPQKKETGTNGNDPSVAPKNAQADSGKDERRGSQAMGWSCFGGCIKDEIFSVFGIGRKIIGRV | not soluble
18 | MSLTSNIFSGCMPALMTPCKADRSPDFDALVKKGKELIEAGMSAVVYCGSMGDWPLLTDEQRMEGVERLVKAGVPVVVGTGAVNTRVAVAHAAHAAKVGARGLMVIPRVLSRGSSVSAQRNHFSDILKAAPSLPAVIYNSPYYGFATRADLFFDLRREFPNLIGFKEFGGLADLRYAAENITSQDDQVTLMVGVDTAVYHGFVNCGATGAITGIGNALPKEVLHLVALCQKAAEGHAEARLRARELEEALAVLSSFDEGSDLVLYYKHLMVLNGEDEYRLHFNETDALSDAQRNYAEAQYELFRTWYADWSTKGEGHHHHHH | soluble
19 | MTIYHFVGIKGSGMSALAQILHDKGFQVQGSDVDKYFFTQKALEEKQIPIMTFSADNIKEGLTIIAGNAFPDTHEEIERANELNLPVIRYHKFLGQLIDGYTSIAITGSHGKTSTTGLLSHVVGAIRPTSYLIGDGTGSGTKDAKYFALEACEYQRHFLAYKPTYAIMTNIDWDHPDYFKSVDDVFNAFETLGKQVKKAVFALGDDVELRKLSLDVPIIYFGFGSENEFQAKNVKKETTGTKFDVYHRDEFLASFEIPAYGDHNVLNALSVIALCDYEGLPVDEVKKELKTFEGVKRRFSITEKGNQVLVDDYAHHPSEIRATVNAARQKYPNKKIVAVFQPHTFTRTRTFLQGFADSLNLADEVYLCDIFGSAREKTGNLTIADLAHKTKGNHIIKEEHTEELLQYPEAVILFMGAGDVQKFQAAYEKVLDNEIVANEVLKKSAIN | not soluble
20 | GPLGSMASKKVCIVGSGNWGSAIAKIVGGNAAQLAQFDPRVTMWVFEEDIGGKKLTEIINTQHENVKYLPGHKLPPNVVAVPDVVQAAEDADILIFVVPHQFIGKICDQLKGHLKANATGISLIKGVDEGPNGLKLISEVIGERLGIPMSVLMGANIASEVADEKFCETTIGCKDPAQGQLLKELMQTPNFRITVVQEVDTVEICGALKNVVAVGAGFCDGLGFGDNTKAAVIRLGLMEMIAFAKLFCSGPVSSATFLESCGVADLITTCYGGRNRKVAEAFARTGKSIEQLEKELLNGQKLQGPETARELYSILQHKGLVDKFPLFMAVYKVCYEGQPVGEFIHCLQNHPEHM | soluble
21 | MKSTSMNTNKRFQNVNQWKLHASAAAYLAGWKVVRLLPEPVAYRLFSWAAVIASRRGRGMDQLRRNLTRVVGAESVDRALVKRSMQSYARYWCEAFRLSVIARDPDVIHRVDAHAVGVEQVNPHSPMIIVLPHSGNWDLIGMYFVKKVGTFTTVAERVKPESLFRAFVNYRRSLGFEVLPLTGSETSPYSVLLQRVREGRTVCLLGERDLTSHGVEVEFFGETTRMPAGAVKLALDSGAPLHVAHTWFEGDDWGLSLSEPVEITDVKSGVQAIAQIMEKNIKAHPQDWHLLQPLWINDLDRRRYESGLQPKND | not soluble
22 | AHHHHHHGSKVYYPGREWPEEYKRVLEKMKEIIDPVTGDNILDSGVVAGLEVKDRTLKVWLRFESQAEYNILGGAAMAYSKIVGDIMEKFALVMFDNVYVYDLRNNIVGVFEKKK | not soluble
23 | MTSPASCSPPNEKRTGSPFPPESRSLPSTMEMTMNTIFRPAPHPLPDAPFYTPLGNECVLFESAWVRQLPLLLKGPTGCGKTRFVSHMAAKLGLPLSTISCHDDLAAADLTGRYLLKGGETVWMDGPLTRSVRQGGICYLDEIVEARKDVAVVLHPLTDDRRILPLERTGEVLEAPSGFMLVVSYNPGYQNLLKSLKPSTRQRFVAIEFDFLPKEQEIAVVSHESGLDARDVEPLVDLAHRLRGLKGHDLEEGVSTRLLVYCASLIDTGLPARQAVRATMIEPLTDEPDVKAALHEVADAIIRLEHHHHHH | not soluble
